Test results from the RNAGym collection of RNA variant scans (doi:10.7554/elife.90254).

B1: OR4K15 (parent)
chain: GUUAACGGUCAUAGGCCAUGGAAACUAGGAGCACCAUUUCGCUGCCAGUGAAGAAAUGAACAAAGAAAAUCUGGGCCAGGCAGGCAUCAAAAGAAAUAGUCUUGCGCUCAACCAGAAAGUCUGUAAUCAUUUUAAGGGUA

Variants of: B1
Assay: self-cleavage, relative activity (ratio to wild type); higher = more cleavage; in vitro, sequencing; the parent is a self-cleaving ribozyme

Compared with U37C U49G, A36C A59G is higher in self-cleavage: 0.44 for the first, 1.68 for the second.

Going from A36U A55U to A36U A92G, the self-cleavage rises from 0.98 to 1.61.

Compared with U37C A69U, A36U U72G is lower in self-cleavage: 1.6 for the first, 0.29 for the second.

Compared with A33U, U37C A116G is lower in self-cleavage: 1.4 for the first, 0.98 for the second.

Compared with C34U U39C, U37C A92G is lower in self-cleavage: 1.5 for the first, 0.77 for the second.

First: A33U A92G
Second: U37C G80U
The self-cleavage of the first is higher: 1.86 for the first, 0.11 for the second.

Going from U37C A110G to U37A U102C, the self-cleavage rises from 0.13 to 1.85.

Compared with A36U A135U, A33U U139G is higher in self-cleavage: 1.85 for the first, 2.5 for the second.

Going from A33U U139C to C34A A55G, the self-cleavage falls from 1.86 to 1.25.

First: C34U U49C
Second: U37C G73A
The self-cleavage of the first is higher: 1.17 for the first, 0.19 for the second.

Compared with U37A A126G, A36G A116G is higher in self-cleavage: 0.44 for the first, 0.76 for the second.

Going from A33U A82U to A33U A51C, the self-cleavage rises from 0.23 to 2.09.

Compared with A33U A51G, U37A A91G is lower in self-cleavage: 1.97 for the first, 0.78 for the second.

First: A36G A52G
Second: C35U A64G
The self-cleavage of the first is higher: 1.79 for the first, 1 for the second.

Going from C34U U70C to U37C U70A, the self-cleavage rises from 0.23 to 1.1.

Going from A36U A129G to A33G U100A, the self-cleavage falls from 1.12 to 0.28.

First: A36U A78C
Second: U37A U70C
The self-cleavage of the first is lower: 0.23 for the first, 1.21 for the second.

Going from A33G U70A to A36G G84A, the self-cleavage rises from 0.5 to 1.88.

First: A33U C128A
Second: A33U C128U
The self-cleavage of the first is lower: 0.48 for the first, 1.3 for the second.

Going from U37C U38C to A36G A94G, the self-cleavage rises from 1.51 to 1.86.

First: U37C U102C
Second: A33U A66G
The self-cleavage of the first is lower: 1.49 for the first, 1.91 for the second.

Compared with A33U G74C, C34U A95G is higher in self-cleavage: 0.05 for the first, 0.45 for the second.

Going from A33U A125G to U37C A66U, the self-cleavage rises from 0.99 to 1.7.

First: A36U C105U
Second: C35U A56G
The self-cleavage of the first is lower: 0.17 for the first, 1.13 for the second.

Compared with A33U A91G, A33U A36G is higher in self-cleavage: 0.6 for the first, 2.32 for the second.

First: C34U A62G
Second: A36U C71U
The self-cleavage of the first is higher: 1.25 for the first, 0.49 for the second.

First: A36G A89G
Second: C35U A95C
The self-cleavage of the first is higher: 1.52 for the first, 0.87 for the second.

Going from U37C U57C to A36G A114G, the self-cleavage falls from 1.18 to 1.06.

First: U37A A116G
Second: U37C A114G
The self-cleavage of the first is lower: 0.18 for the first, 0.34 for the second.

Compared with A36G C113U, A36U A125G is higher in self-cleavage: 0.07 for the first, 0.7 for the second.

Going from A33U A118G to A33U A118C, the self-cleavage rises from 0.91 to 1.06.

First: A33U A95U
Second: A36G A60U
The self-cleavage of the first is higher: 2 for the first, 0.82 for the second.

Going from A36G U37C to U37C A94G, the self-cleavage rises from 1.71 to 1.76.

Going from U37C A135U to C34U U43A, the self-cleavage falls from 2.17 to 0.99.

First: C35U A117G
Second: A36G U102C
The self-cleavage of the first is lower: 1.25 for the first, 1.88 for the second.

First: C34G A67G
Second: A36C A96G
The self-cleavage of the first is lower: 1.12 for the first, 1.9 for the second.

Going from A36C A94G to C34A A92C, the self-cleavage falls from 1.94 to 0.26.

Going from C35U A98U to A36G A91G, the self-cleavage falls from 1.52 to 0.95.

Compared with A36G A91C, A36G A91U is lower in self-cleavage: 1.96 for the first, 1.95 for the second.

Going from C34U U127C to A36U U131C, the self-cleavage rises from 1.39 to 1.87.

Compared with A36G A66G, A36C A55G is lower in self-cleavage: 1.8 for the first, 1.7 for the second.

Compared with U37C G79U, C34U U120G is higher in self-cleavage: 0.12 for the first, 0.94 for the second.

Going from A36G U87C to A36G U87A, the self-cleavage rises from 2.04 to 2.26.

First: U37C C42G
Second: A33U U43C
The self-cleavage of the first is higher: 1.69 for the first, 0.26 for the second.

First: U37C A55U
Second: A33U C112U
The self-cleavage of the first is higher: 1.57 for the first, 0.01 for the second.

First: U37A G137A
Second: C34U C128A
The self-cleavage of the first is higher: 2.24 for the first, 1.3 for the second.

Going from A36G A98U to A36G A98G, the self-cleavage falls from 2.12 to 1.54.

First: A36G A125G
Second: A33U A117G
The self-cleavage of the first is lower: 0.6 for the first, 1.9 for the second.

First: A33U U37C
Second: U37C G106A
The self-cleavage of the first is higher: 1.51 for the first, 0.01 for the second.

First: A36U A56C
Second: A36U A56U
The self-cleavage of the first is higher: 1.49 for the first, 1.12 for the second.

Going from A36U A56G to A33U U38C, the self-cleavage rises from 1.46 to 2.

Going from A33U A94U to A33G U49G, the self-cleavage falls from 2.41 to 0.61.

Going from A33G U49C to C35A C121A, the self-cleavage rises from 0.5 to 1.53.

Going from U37C A89C to U37C A89U, the self-cleavage rises from 1.31 to 2.23.

Compared with U37C A89G, A33G U38C is lower in self-cleavage: 1.52 for the first, 1.41 for the second.

Going from A36U U130C to A33G U122C, the self-cleavage falls from 1.45 to 0.64.

Compared with C35U A126G, A36U A118G is higher in self-cleavage: 0.58 for the first, 1.05 for the second.

Compared with A33G U120C, A36G A96C is higher in self-cleavage: 0.53 for the first, 0.95 for the second.

First: U37C U120C
Second: U37C U120A
The self-cleavage of the first is lower: 0.84 for the first, 2.58 for the second.

Going from A36C G48A to A33U U130C, the self-cleavage rises from 1.28 to 2.

Going from C35A G99U to U37A A82G, the self-cleavage falls from 0.79 to 0.61.

Compared with A36U A62C, U37A A67U is lower in self-cleavage: 0.87 for the first, 0.67 for the second.

Compared with A36G G136A, U37A U130C is lower in self-cleavage: 1.79 for the first, 0.61 for the second.

Compared with C35U U131A, U37C A98U is higher in self-cleavage: 1.01 for the first, 1.84 for the second.

Going from U37C A98G to A36C A60G, the self-cleavage falls from 0.8 to 0.49.

Compared with U37C C128A, A36U U102C is higher in self-cleavage: 0.17 for the first, 2.06 for the second.

Going from A36U U127A to C34A A51G, the self-cleavage falls from 2.98 to 1.27.

First: A36G C112U
Second: U37C A60C
The self-cleavage of the first is lower: 0.03 for the first, 1.44 for the second.

First: U37C A60U
Second: C34U G41U
The self-cleavage of the first is lower: 1.69 for the first, 1.82 for the second.

Going from U37C U87C to A33U U70A, the self-cleavage falls from 0.99 to 0.33.

First: C34U U124A
Second: U37C G74U
The self-cleavage of the first is higher: 0.3 for the first, 0.2 for the second.

First: U37C A134G
Second: C34U A118G
The self-cleavage of the first is lower: 1.32 for the first, 1.49 for the second.

Going from U37C A126G to C35A C112U, the self-cleavage falls from 1.31 to 0.03.

First: C34U A96G
Second: U37C A68G
The self-cleavage of the first is higher: 2.68 for the first, 1.25 for the second.

Going from C35U G136U to C34U U103G, the self-cleavage falls from 1.19 to 0.04.

First: C34U U103A
Second: A36U C61U
The self-cleavage of the first is lower: 0.44 for the first, 2.41 for the second.

First: A36G A82C
Second: A33U U57C
The self-cleavage of the first is lower: 0.2 for the first, 0.68 for the second.

First: A33U C101A
Second: U37C A90G
The self-cleavage of the first is lower: 0.35 for the first, 1.12 for the second.

Going from U37C A90U to C34G U132C, the self-cleavage rises from 0.91 to 2.44.

First: A36C A114G
Second: A36C A86U
The self-cleavage of the first is lower: 0.9 for the first, 2.2 for the second.

Going from A36C A86G to C34A U103C, the self-cleavage falls from 1.24 to 0.77.

Compared with C34U A91G, U37C A47G is higher in self-cleavage: 1.1 for the first, 1.19 for the second.

Compared with A36U A90U, U37C A59G is lower in self-cleavage: 1.74 for the first, 1.72 for the second.

U37C G48A showed a self-cleavage of 1.59.
